# Measured values taken from the Human Domainome abundance scans (Beltran et al. 2025).
# ± gives the uncertainty stated by the source.
# Test: abundance fitness (aPCA) (normalised: wild type 0, dead -1); higher = more abundant; growth selection in yeast, the domain comes from the species named
# Conditions: Homo sapiens
row,Substance,abundance fitness
1,"Scaffold attachment factor B1 E74G, Q15424",-0.202 ± 0.063
2,"Scaffold attachment factor B1 E74C, Q15424",-0.18 ± 0.073
3,"Scaffold attachment factor B1 L61C, Q15424",-0.41 ± 0.055
4,"Scaffold attachment factor B1 R60P, Q15424",-0.492 ± 0.072
5,"Scaffold attachment factor B1 G69P, Q15424",-0.419 ± 0.083
6,"Scaffold attachment factor B1 T26E, Q15424",-0.242 ± 0.13
7,"Scaffold attachment factor B1 R35P, Q15424",-0.288 ± 0.081
8,"Scaffold attachment factor B1 G52Q, Q15424",-0.781 ± 0.066
9,"Scaffold attachment factor B1 R46D, Q15424",-0.832 ± 0.071
10,"Scaffold attachment factor B1 S51A, Q15424",-0.299 ± 0.071
11,"Scaffold attachment factor B1 G69T, Q15424",-0.472 ± 0.077
12,"Scaffold attachment factor B1 E74W, Q15424",-0.135 ± 0.055
13,"Scaffold attachment factor B1 E42P, Q15424",-0.976 ± 0.18
14,"Scaffold attachment factor B1 I65M, Q15424",-0.312 ± 0.069
15,"Scaffold attachment factor B1 I75N, Q15424",-0.219 ± 0.058
16,"Scaffold attachment factor B1 V56K, Q15424",-0.197 ± 0.064
17,"Scaffold attachment factor B1 D73G, Q15424",-0.124 ± 0.049
18,"Scaffold attachment factor B1 R44T, Q15424",-0.024 ± 0.062
19,"Scaffold attachment factor B1 A64K, Q15424",-0.228 ± 0.08
20,"Scaffold attachment factor B1 I77W, Q15424",-0.119 ± 0.053
21,"Scaffold attachment factor B1 V48K, Q15424",-0.118 ± 0.095
22,"Scaffold attachment factor B1 L39A, Q15424",-0.556 ± 0.062
23,"Scaffold attachment factor B1 N71I, Q15424",-0.468 ± 0.1
24,"Scaffold attachment factor B1 S51N, Q15424",-0.167 ± 0.1
25,"Scaffold attachment factor B1 G69W, Q15424",-0.658 ± 0.067
26,"Scaffold attachment factor B1 V56T, Q15424",-0.202 ± 0.069
27,"Scaffold attachment factor B1 R30Y, Q15424",-0.383 ± 0.086

row,Substance,abundance fitness
1,"Scaffold attachment factor B1 D38M, Q15424",-0.536 ± 0.071
2,"Scaffold attachment factor B1 S51M, Q15424",-0.284 ± 0.07
3,"Scaffold attachment factor B1 R46M, Q15424",-0.384 ± 0.1
4,"Scaffold attachment factor B1 G27Q, Q15424",-0.334 ± 0.08
5,"Scaffold attachment factor B1 K62G, Q15424",-0.191 ± 0.048
6,"Scaffold attachment factor B1 L61G, Q15424",-0.511 ± 0.051
7,"Scaffold attachment factor B1 R30I, Q15424",-0.33 ± 0.073
8,"Scaffold attachment factor B1 L39R, Q15424",-0.894 ± 0.05
9,"Scaffold attachment factor B1 L39P, Q15424",-0.77 ± 0.1
10,"Scaffold attachment factor B1 S55G, Q15424",-0.144 ± 0.066
11,"Scaffold attachment factor B1 L61K, Q15424",-0.788 ± 0.12
12,"Scaffold attachment factor B1 E66K, Q15424",-0.169 ± 0.082
13,"Scaffold attachment factor B1 I75D, Q15424",-0.449 ± 0.11
14,"Scaffold attachment factor B1 E42I, Q15424",-0.422 ± 0.057
15,"Scaffold attachment factor B1 L39F, Q15424",-0.665 ± 0.089
16,"Scaffold attachment factor B1 P72Q, Q15424",-0.432 ± 0.098
17,"Scaffold attachment factor B1 K45A, Q15424",-0.013 ± 0.27
18,"Scaffold attachment factor B1 S51V, Q15424",-0.118 ± 0.061
19,"Scaffold attachment factor B1 G52E, Q15424",-0.727 ± 0.079
20,"Scaffold attachment factor B1 E66R, Q15424",-0.202 ± 0.047
21,"Scaffold attachment factor B1 K62L, Q15424",-0.204 ± 0.054
22,"Scaffold attachment factor B1 N53V, Q15424",-0.158 ± 0.056
23,"Scaffold attachment factor B1 D73Y, Q15424",-0.375 ± 0.073
24,"Scaffold attachment factor B1 E68N, Q15424",-0.346 ± 0.056
25,"Scaffold attachment factor B1 S32Y, Q15424",-0.331 ± 0.082
26,"Scaffold attachment factor B1 G70F, Q15424",-0.406 ± 0.083
27,"Scaffold attachment factor B1 S55Y, Q15424",-0.307 ± 0.08

row,Substance,abundance fitness
1,"Scaffold attachment factor B1 R30N, Q15424",-0.411 ± 0.1
2,"Scaffold attachment factor B1 I37K, Q15424",-0.103 ± 0.076
3,"Scaffold attachment factor B1 L34Q, Q15424",-0.527 ± 0.087
4,"Scaffold attachment factor B1 D38V, Q15424",-0.629 ± 0.052
5,"Scaffold attachment factor B1 L57Y, Q15424",-1.23 ± 0.095
6,"Scaffold attachment factor B1 S32V, Q15424",-0.174 ± 0.059
7,"Scaffold attachment factor B1 D38W, Q15424",-0.742 ± 0.067
8,"Scaffold attachment factor B1 L61M, Q15424",-0.336 ± 0.083
9,"Scaffold attachment factor B1 E59Q, Q15424",-0.19 ± 0.096
10,"Scaffold attachment factor B1 L57R, Q15424",-0.754 ± 0.054
11,"Scaffold attachment factor B1 I75R, Q15424",-0.285 ± 0.057
12,"Scaffold attachment factor B1 M58H, Q15424",-0.344 ± 0.079
13,"Scaffold attachment factor B1 E76K, Q15424",-0.294 ± 0.096
14,"Scaffold attachment factor B1 S79H, Q15424",-0.266 ± 0.086
15,"Scaffold attachment factor B1 R29K, Q15424",-0.086 ± 0.083
16,"Scaffold attachment factor B1 K54G, Q15424",-0.234 ± 0.05
17,"Scaffold attachment factor B1 V48D, Q15424",-0.768 ± 0.11
18,"Scaffold attachment factor B1 L31V, Q15424",-0.188 ± 0.06
19,"Scaffold attachment factor B1 D38R, Q15424",-0.618 ± 0.055
20,"Scaffold attachment factor B1 E76V, Q15424",-0.044 ± 0.049
21,"Scaffold attachment factor B1 R30Q, Q15424",-0.25 ± 0.082
22,"Scaffold attachment factor B1 D33C, Q15424",-0.354 ± 0.061
23,"Scaffold attachment factor B1 R29S, Q15424",-0.189 ± 0.063
24,"Scaffold attachment factor B1 L43D, Q15424",-0.858 ± 0.1
25,"Scaffold attachment factor B1 P72R, Q15424",-0.23 ± 0.052
